PMC4176360, “Crystal structure of the catalytic core of Rad2: insights into the mechanism of substrate binding” (Nucleic Acids Research, 2014)

How the values were obtained:
[1] = target: Sc-Rad2-ΔSC (complex I construct) (Saccharomyces cerevisiae, UniProt P07276 1-986, del112-731;del987-1031); experiment: X-ray crystallography; non-productive complex; DNA largely disordered, backbone contacts H2TH of one subunit; Crystallization at room temperature, protein:DNA 1:1.2, 10 mg/ml protein; protein in 20 mM HEPES pH 7.5, 150 mM KCl, 5 mM Ca acetate, 5% glycerol, 0.5 mM TCEP (complex I: 150 mM NaCl); point-mutant cleavage assays without a binding read-out not listed; details: protein: recombinant; tags: 6xHis-SUMO cleaved; two additional N-terminal residues left; chain copies: 2; duplex 12-15 bp with overhangs
Sc-Rad2-ΔSC [2] = target: T1, Sc-Rad2-ΔSC (Saccharomyces cerevisiae, UniProt P07276 2-986, del112-731;del987-1031); experiment: X-ray crystallography, 2.7 Å; Ca2+ at active site; K+ at H2TH; Crystallization at room temperature, protein:DNA 1:1.2, 10 mg/ml protein; protein in 20 mM HEPES pH 7.5, 150 mM KCl, 5 mM Ca acetate, 5% glycerol, 0.5 mM TCEP (complex I: 150 mM NaCl); point-mutant cleavage assays without a binding read-out not listed; details: protein: recombinant; tags: 6xHis-SUMO removed by SENP; N-terminal Gly2 after cleavage; chain copies: 2; 15 bp with 4 nt overhangs on all four ends
Sc-Rad2-ΔSC [3] = target: T1, Sc-Rad2-ΔSC; experiment: X-ray crystallography, 2.1 Å; Ca2+ at active site; K+ at H2TH; Crystallization at room temperature, protein:DNA 1:1.2, 10 mg/ml protein; protein in 20 mM HEPES pH 7.5, 150 mM KCl, 5 mM Ca acetate, 5% glycerol, 0.5 mM TCEP (complex I: 150 mM NaCl); point-mutant cleavage assays without a binding read-out not listed; details: protein: recombinant; tags: 6xHis-SUMO removed by SENP; N-terminal Gly2 after cleavage; chain copies: 2; 14 complementary bp with TT overhangs on all four ends; in crystal 15-mer duplex with one T-T mismatch, 1 nt overhangs at one end and 2 nt at the other
Sc-Rad2-ΔSC [4] = target: T1, Sc-Rad2-ΔSC; experiment: X-ray crystallography, 2.4 Å; Ca2+ at active site; K+ at H2TH; Crystallization at room temperature, protein:DNA 1:1.2, 10 mg/ml protein; protein in 20 mM HEPES pH 7.5, 150 mM KCl, 5 mM Ca acetate, 5% glycerol, 0.5 mM TCEP (complex I: 150 mM NaCl); point-mutant cleavage assays without a binding read-out not listed; details: protein: recombinant; tags: 6xHis-SUMO removed by SENP; N-terminal Gly2 after cleavage; chain copies: 2; 15 bp with 1 nt overhangs on all four ends
[5] = target: the molecule itself; experiment: crystal structure; complex I: selenomethionine-labeled Rad2-ΔSC mixed with DNA at a 1:1.2 molar ratio, sitting-drop vapor diffusion, room temperature, reservoir 20% (v/v) ethylene glycol; space group P3(2)21, 2.75 Å

B1: complex I DNA (dsDNA)
DNA 1: AAAGCTCTGACTCAG
DNA 2: CTGAGTCAGAGCAAA
Q: Does B1 bind [1]?
A: Result: binds

B2: complex IV DNA (dsDNA)
DNA 1: TTTTGCTCCCTTGTCTCAGTTTT
DNA 2: TTTTCTGAGACAAGGGAGCTTTT
Q: Does B2 bind (Sc-Rad2-ΔSC [2])?
A: Result: binds

B3: complex II DNA (dsDNA)
DNA 1: TTAGGTGGACGGATCATT
DNA 2: TTTGATCCGTCCACCTTT
Q: Does B3 bind (Sc-Rad2-ΔSC [3])?
A: Result: binds

B4: complex III DNA (dsDNA)
DNA 1: TGCTCCCTTGTCTCAGT
DNA 2: TCTGAGACAAGGGAGCT
Q: Does B4 bind (Sc-Rad2-ΔSC [4])?
A: Result: binds

B5: Sc-Rad2-ΔSC (Δ112-731, Δ987-1031) (enzyme, S. cerevisiae, UniProt P07276 1-986, looked up)
chain: MGVHSFWDIAGPTARPVRLESLEDKRMAVDASIWIYQFLKAVRDQEGNAVKNSHITGFFRRICKLLYFGIRPVFVFDGGVPVLKRETIRQRKERRQGKRESAKSTARKLLANTTLSTSAERNVAENAFVEDELFEQQMKDKRDSDEVTMDMIKEVQELLSRFGIPYITAPMEAEAQCAELLQLNLVDGIITDDSDVFLFGGTKIYKNMFHEKNYVEFYDAESILKLLGLDRKNMIELAQLLGSDYTNGLKGMGPVSSIEVIAEFGNLKNFKDWYNNGQFDKRKQETENKFEKDLRKKLVNNEIILDDDFPSVMVYDAYMRPEVDHDTTPFVWGVPDLDMLRSFMKTQLGWPHEKSDEILIPLIRDV
modifications: selenomethionine-labeled (complex I)
notes: Rad2, S. cerevisiae, spacer residues 112-731 removed and C-terminus (residues 987-1031) removed; The dimer is seen in crystal complex I together with disordered DNA; The same construct, not selenomethionine-labeled, stands in complexes II-IV; also called Sc-Rad-ΔSC; catalytic core of Rad2; source: E. coli BL21 (DE3) Rosseta, purified (HisTrap, SENP cleavage, second HisTrap, Superdex 200); …
Q: Does B5 bind [5]?
A: Result: binds
